{"source": "paper PMC3982999", "target": "human ubiquitin (human) (UniProt P0CG48)", "assay": "NMR titration", "data": [{"substance": "WT spartin 155-367 (GST tag removed) (from UniProt Q8N0X7 155-367) (domain or fragment)", "values": [{"measurement": "Kd", "value": "< 10", "unit": "µM"}]}]}
